Laboratory results as given in patent publication KR20240010698A.

How the values were obtained:
[1] = target: FITC-labelled recombinant human HER2 (human) (UniProt P04626); test: flow cytometry, CDV on aldehyde/sulfate latex beads, FITC-HER2 titrated
[2] = target: FITC-labelled recombinant human HER2 (human) (UniProt P04626); test: nanoparticle flow cytometry of CDV incubated with FITC-HER2

EC50 [1]: 0.94 µg/mL | percent of CDV with FITC fluorescence [2]: 44.5%
Substance: scTTZ-gLAMP1 (trastuzumab scFv fused to glycosylated LAMP1) on cell-derived vesicles
